Patent US12324827B2, “Combination therapy for the treatment of migraines” (The University of Chicago, priority 2019, dated 2025)
Entries after “also recorded” stand apart in the source; their conditions may differ.

Tests used:
[1] = Blood glucose after nose-to-brain (N2B) delivery of IGF-1; format: in vivo, Wistar rats; details: for blood glucose level: n=4/group; for hypoglycemia: after nasal (N2B) delivery of IGF-1
Protocol: N2B delivery of 150 μg human recombinant IGF-1 (#191-G1; R&D Systems, Minneapolis, MN) in 50 μL sodium succinate buffer followed the previously described approach (21,51) that was based on the techniques of Liu and coworkers (24) in the recording laboratory under isoflurane anesthesia with spontaneous ventilation.
Blood glucose was monitored in a subset of animals. Immediately before N2B treatments and while anesthetized, blood glucose was sampled at time zero using a sterile, 27 gauge hypodermic needle to puncture the tip of the tail. A second drop of blood from punctures was used for glucose measurements (Contour Next EZ; Ascensia Diabetes Care, US, Inc.; Parsippany, NJ). After N2B treatments (IGF-1 or vehicle), animals were briefly re-anesthetized and maintained as above for each blood draw done over time (i.e., 0.3, 3, 6, and 24 hours).

spreading depression = details: cited from earlier work
mechanical hyperalgesia = experiment: Acid saline-induced fibromyalgia model, hind paw withdrawal threshold by electronic von Frey; format: in vivo, female Wistar rats; details: nasal IGF-1 150 μg/dose on PD-2, PD-5, PD-8; experiments FM-7 and FM-8, n=3/group
Description: However, due to its simplicity and reproducibility, a widely-used, non-inflammatory rodent model which mimics chronic, widespread muscle pain-like behavior was utilized. This fibromyalgia model consists of two unilateral injections of acid saline into the gastrocnemius muscle which produce bilateral, long-lasting mechanical hyperalgesia for up to 4 weeks without motor deficits or tissue damage observed histologically (Sluka et al., 2001), Hind paw withdrawal thresholds obtained using an electronic von Frey device were used as a measure of “inferred pain”.
Experimental Procedures here are described utilizing intranasal IGF-1 for treatment of pain related to the acid saline-induced fibromyalgia model. […]
Testing consists of placing rats in an acrylic cage module [23 cm×24 cm×14.6 cm (W×L×H)] which rests upon an elevated wire mesh grid floor (FIG. 21). […] The force at which this response occurs is recorded automatically by the electronic device and is designated as the paw withdrawal threshold (FIG. 22). […]
Two investigators were used for all experiments. […] The second investigator recorded paw withdrawal threshold (PWT) force levels, procedures modeled after the experimental strategy reported by Martinov et al., 2013. […]
Specifically, baseline (BA) measurements of paw withdrawal threshold (PWT) were determined for six animals/experiment prior to experimental treatment. […]

“IGF-1: human recombinant IGF-1 (#191-G1; R&D Systems), 150 μg in 50 μL sodium succinate buffer, delivered nose-to-brain” gave a blood glucose level ([1]; 0.3-hour after N2B IGF-1 150 μg, non-fasted rats) of 196 ± 22 mg/dL, a blood glucose level ([1]; 3.0-hour after N2B IGF-1 150 μg) of 114 ± 14 mg/dL and a blood glucose level ([1]; 6.0-hour after N2B IGF-1 150 μg) of 134 ± 7 mg/dL. For the same substance, the blood glucose level ([1]; 24-hour after N2B IGF-1 150 μg) was 150 ± 40 mg/dL, the hypoglycemia [1] was “did not induce hypoglycemia; also recorded: did not see evidence of hypoglycemia; also recorded: did not evoke hypoglycemia; also recorded: no evidence of hypoglycemia; also recorded: did not cause hypoglycemia; also recorded: no hypoglycemic effect; also recorded: did not trigger hypoglycemia” and the hypoglycemia ([1]; listed as insulin-like growth factor-1) was “no impact on blood glucose levels occurred”. The “lowest IGF-1 glucose-related level seen” value ([1]; normal range for Wistar rats 85-132 mg/dL, control 132 mg/dL at time 0) was 114 mg/dL, the “protection against SD over sham treatment” value (spreading depression; SD from KCl, pretreatment) was roughly 27 fold and the “spreading depression in whole animals” value (spreading depression; nasal delivery) was “significantly inhibited spreading depression in whole animals”. For the same substance, the “hind paw withdrawal threshold / pain-related behavior” value (mechanical hyperalgesia) was “significant and continued reduction in pain-related behavior; also recorded: protection against acid-induced hind paw hyperalgesia”.
